Experimental data: patent US20260210939A1, “MODIFIED OLFACTORY RECEPTORS” (GIVAUDAN SA, priority 2022, published 2026)
Like-named read-outs stand apart in the source and are kept apart here.

Columns and labels:
[1] = molecular target: T1, OR2T4 (Homo sapiens, UniProt Q8NH00, D328E/G331D/M330K); details: for % of the activation by the optimized sequence RNKEVKDALKRLLKRKCC: OR2T4 variant
T1 sequence (Q8NH00 with tags, fused parts or gaps D328E/M330K/G331D): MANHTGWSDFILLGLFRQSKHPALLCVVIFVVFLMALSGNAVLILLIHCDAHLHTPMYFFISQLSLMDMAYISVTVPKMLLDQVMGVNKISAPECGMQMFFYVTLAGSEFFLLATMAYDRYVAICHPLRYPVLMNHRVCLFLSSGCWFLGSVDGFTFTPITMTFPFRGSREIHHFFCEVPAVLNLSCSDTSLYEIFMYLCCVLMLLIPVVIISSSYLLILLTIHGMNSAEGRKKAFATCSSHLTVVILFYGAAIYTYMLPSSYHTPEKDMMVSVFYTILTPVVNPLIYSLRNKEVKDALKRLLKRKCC

[2] = molecular target: T2, OR2T11 (Homo sapiens, UniProt Q8NH01, C119R); experiment: CRE-luciferase assay, HEK293T cells expressing OR2T11 (wild-type / modified C-terminus); assay type: cell-based
T2 construct: Improved functional expression of modified OR-genes containing the truncated, optimized C-terminus; expressed in transfected cells; host or cells: HEK293T stably expressing human RTP1S(V227I) and RTP2(L220R)
T2 sequence (Q8NH01 with tags, fused parts or gaps C119R): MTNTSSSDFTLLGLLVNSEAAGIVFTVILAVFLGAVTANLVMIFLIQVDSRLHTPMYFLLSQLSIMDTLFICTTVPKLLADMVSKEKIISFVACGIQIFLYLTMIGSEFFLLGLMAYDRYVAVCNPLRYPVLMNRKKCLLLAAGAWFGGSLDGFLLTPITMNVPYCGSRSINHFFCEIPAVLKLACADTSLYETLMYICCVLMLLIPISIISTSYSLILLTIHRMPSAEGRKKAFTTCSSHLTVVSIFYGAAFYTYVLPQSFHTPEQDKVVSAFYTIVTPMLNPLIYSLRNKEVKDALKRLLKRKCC

[3] = molecular target: T3, OR10A3 (Homo sapiens, UniProt P58181); experiment: Dose-response test of single lactones on OR10A3 (luciferase); assay type: cell-based
T3 construct: Class II OR library members with modified C-terminal domains; expressed in transfected cells
T3 sequence (P58181 with tags, fused parts or gaps): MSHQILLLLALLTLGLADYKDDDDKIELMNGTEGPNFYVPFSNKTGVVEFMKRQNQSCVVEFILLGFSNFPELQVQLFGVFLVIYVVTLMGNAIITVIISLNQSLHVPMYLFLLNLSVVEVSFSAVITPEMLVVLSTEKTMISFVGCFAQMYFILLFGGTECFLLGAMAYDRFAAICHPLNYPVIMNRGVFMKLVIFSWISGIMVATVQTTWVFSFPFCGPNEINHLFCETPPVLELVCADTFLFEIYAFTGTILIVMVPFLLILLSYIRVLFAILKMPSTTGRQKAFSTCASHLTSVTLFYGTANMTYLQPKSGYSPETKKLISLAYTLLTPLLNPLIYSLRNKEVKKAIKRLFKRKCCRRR
Description: In a subsequent de-convultion experiment, the single ingredients were tested in a dose-response test on all the identified OR. […] Thus, OR2AP1 and OR2J2 are particularly strongly activated by the long-chain dodecalactone gamma, while OR10A3 is very sensitive to several longer chain lactones. […] Among the five OR, OR10A3 is the most sensitive.

[4] = molecular target: T4, OR8K3 (Homo sapiens, UniProt Q8NH51, D295E/L122R/Y298D); experiment: cell-based; assay type: cell-based
T4 construct: Improved functional expression of modified OR-genes containing the truncated, optimized C-terminus; expressed in transfected cells; host or cells: HEK293T stably expressing human RTP1S(V227I) and RTP2(L220R)
T4 sequence (Q8NH51 with tags, fused parts or gaps L122R/D295E/Y298D): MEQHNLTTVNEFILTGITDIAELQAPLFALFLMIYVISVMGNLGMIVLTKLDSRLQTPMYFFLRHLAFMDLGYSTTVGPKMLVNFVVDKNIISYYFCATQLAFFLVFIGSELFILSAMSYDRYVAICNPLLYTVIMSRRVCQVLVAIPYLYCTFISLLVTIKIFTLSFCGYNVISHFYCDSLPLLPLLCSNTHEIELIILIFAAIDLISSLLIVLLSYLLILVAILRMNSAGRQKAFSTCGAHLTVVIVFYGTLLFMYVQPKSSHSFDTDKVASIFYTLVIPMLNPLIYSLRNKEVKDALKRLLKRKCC

[5] = molecular target: T5, OR7D4 (Homo sapiens, UniProt Q8NG98, D296E/E302K/G299D); experiment: CRE-luciferase assay, HEK cells expressing OR7D4 (wild-type / modified C-terminus); assay type: cell-based; details: OR7D4 variant, Androstenone
T5 construct: Improved functional expression of modified OR-genes containing the truncated, optimized C-terminus; expressed in transfected cells
T5 sequence (Q8NG98 with tags, fused parts or gaps D296E/G299D/E302K): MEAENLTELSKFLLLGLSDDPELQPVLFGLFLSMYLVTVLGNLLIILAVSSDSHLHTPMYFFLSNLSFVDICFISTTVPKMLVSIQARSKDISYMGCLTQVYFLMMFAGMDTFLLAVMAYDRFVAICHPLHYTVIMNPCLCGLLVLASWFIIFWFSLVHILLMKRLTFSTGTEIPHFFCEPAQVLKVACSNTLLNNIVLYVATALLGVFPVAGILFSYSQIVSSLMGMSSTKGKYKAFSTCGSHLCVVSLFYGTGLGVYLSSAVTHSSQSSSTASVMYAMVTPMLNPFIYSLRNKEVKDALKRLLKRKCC

[6] = molecular target: T6, OR7C1 (Homo sapiens, UniProt O76099, D296E/G302K/M297V/R299D/T295K/V126I); experiment: CRE-luciferase assay, HEK293T cells expressing OR7C1 (wild-type / modified C-terminus); assay type: cell-based
T6 construct: Improved functional expression of modified OR-genes containing the truncated, optimized C-terminus; expressed in transfected cells; host or cells: HEK293T stably expressing human RTP1S(V227I) and RTP2(L220R)
T6 sequence (O76099 with tags, fused parts or gaps V126I/T295K/D296E/M297V/R299D/G302K): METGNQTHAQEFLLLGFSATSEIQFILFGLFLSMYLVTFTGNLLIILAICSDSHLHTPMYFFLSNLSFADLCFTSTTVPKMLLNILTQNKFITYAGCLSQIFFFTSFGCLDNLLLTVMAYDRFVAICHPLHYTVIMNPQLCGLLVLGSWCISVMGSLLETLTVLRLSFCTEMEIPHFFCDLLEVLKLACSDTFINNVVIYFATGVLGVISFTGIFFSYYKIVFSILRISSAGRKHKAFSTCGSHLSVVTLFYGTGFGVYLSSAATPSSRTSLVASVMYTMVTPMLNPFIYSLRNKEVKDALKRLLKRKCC
Excerpt: To test for possible variants of the sequence […]CC (SEQ ID NO: 86) leading to similar improved functional expression, different point mutations were introduced into the first 16 amino acids of this sequence (corresponding to […], SEQ ID NO: 10) and the variants were fused after the TM7 with OR7C1. […] The test concentrations were selected to fall into the range of partial activity of the wild-type sequence.

[7] = molecular target: T7, OR5A2 (Homo sapiens, UniProt Q8NGI9); experiment: CRE-luciferase assay, HEK293T cells expressing OR5A2 (wild-type / modified C-terminus); assay type: cell-based; details: OR5A2 variant
T7 construct: Improved functional expression of modified OR-genes containing the truncated, optimized C-terminus; expressed in transfected cells; host or cells: HEK293T with stably integrated human RTP1S(V227I) and RTP2(L220R)
T7 sequence (Q8NGI9 with tags, fused parts or gaps): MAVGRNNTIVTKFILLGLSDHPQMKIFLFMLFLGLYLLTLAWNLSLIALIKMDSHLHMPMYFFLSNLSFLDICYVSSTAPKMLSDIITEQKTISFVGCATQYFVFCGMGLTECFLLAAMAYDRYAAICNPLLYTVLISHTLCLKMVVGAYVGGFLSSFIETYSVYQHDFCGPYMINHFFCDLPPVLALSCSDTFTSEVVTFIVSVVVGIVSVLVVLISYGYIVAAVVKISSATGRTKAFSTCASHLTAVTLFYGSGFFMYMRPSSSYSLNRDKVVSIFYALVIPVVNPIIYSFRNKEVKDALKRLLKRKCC

[8] = molecular target: T8, OR52A5 (Homo sapiens, UniProt Q9H2C5); assay type: cell-based
T8 construct: Improved functional expression of modified OR-genes containing the truncated, optimized C-terminus; expressed in transfected cells; host or cells: HEK293T stably expressing human RTP1S(V227I) and RTP2(L220R)
T8 sequence (Q9H2C5 with tags, fused parts or gaps): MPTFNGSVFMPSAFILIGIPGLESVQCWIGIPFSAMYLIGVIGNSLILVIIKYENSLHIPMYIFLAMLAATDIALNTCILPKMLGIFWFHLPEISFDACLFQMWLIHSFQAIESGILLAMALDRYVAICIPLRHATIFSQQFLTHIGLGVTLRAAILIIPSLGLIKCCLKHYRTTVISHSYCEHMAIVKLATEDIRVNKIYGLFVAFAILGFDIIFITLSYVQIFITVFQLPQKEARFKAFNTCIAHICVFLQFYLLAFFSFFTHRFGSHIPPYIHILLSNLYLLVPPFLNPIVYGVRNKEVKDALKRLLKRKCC
Description: Further variants of the improved C-terminal domain sequence […] (SEQ ID NO: 86) and falling within the general sequence RN[KR][EDQ][VMIL][KR]xA[LIV][KRH][KR][LI][LIF][KRG][KR][KR] (SEQ ID NO: 1) with further amino acids at the C-terminal end (CC) were tested on the class I receptor OR52A5 activated by 4-ethyloctanoic acid. […] This activation is further improved by either replacing amino acid position 4-6 with the sequence QIR or by adding the terminal sequence RRR.

[9] = molecular target: T9, OR5B12 (Homo sapiens, UniProt Q96R08, C141R); experiment: CRE-luciferase assay, HEK293T cells expressing OR5B12 (wild-type / modified C-terminus); assay type: cell-based; details: OR5B12 variant
T9 construct: Improved functional expression of modified OR-genes containing the truncated, optimized C-terminus; expressed in transfected cells; host or cells: HEK293T stably expressing human RTP1S(V227I) and RTP2(L220R)
T9 sequence (Q96R08 with tags, fused parts or gaps C141R): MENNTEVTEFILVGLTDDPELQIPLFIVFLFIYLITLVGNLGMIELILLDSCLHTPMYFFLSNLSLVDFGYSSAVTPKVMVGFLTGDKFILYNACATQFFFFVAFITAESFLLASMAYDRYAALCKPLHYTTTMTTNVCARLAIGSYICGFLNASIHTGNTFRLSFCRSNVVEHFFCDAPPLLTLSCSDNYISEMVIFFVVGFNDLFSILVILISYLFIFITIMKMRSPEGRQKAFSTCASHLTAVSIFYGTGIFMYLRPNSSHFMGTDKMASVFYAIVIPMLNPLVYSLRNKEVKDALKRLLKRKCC

C=CCSSCC=C [Diallyl disulfide]
ligand identification in sulfur odorant screen ([1]; OR2T4 with optimized C-terminus SEQ ID NO: 86): good ligands
Comments on efficacy [2]: No induction
Detection threshold; concentration for 2-fold induction ([2]; changed C-term. SEQ ID NO: 86): 2.03 µM
EC50 ([2]; changed C-term. SEQ ID NO: 86): 6.51 µM
Fold-improvement potency ([2]; changed C-term. vs wild-type): >>40
Fold-improvement threshold ([2]; changed C-term. vs wild-type): >100
Detection threshold; concentration for 2-fold induction ([2]; wild-type): >200 µM
EC50 ([2]; wild-type): > 200 µM

CCCC1CCC(=O)O1 (stereo not shown) [Heptalactone gamma]
EC10, concentration for 10-fold OR activation [3]: 298.04 μM

CC1CCC(C(C)C)C(O)C1 (stereo not shown) [Menthol]
Comments on efficacy [4]: 3-fold lower
functional response of chimeric OR8K3 ([4]; C-terminal sequence of OR1N2 or OR5AN1): did not show any functional response
EC50 ([4]; changed C-term. SEQ ID NO: 86): 115 µM
Fold-improvement potency ([4]; changed C-term. vs wild-type): 2
Fold-improvement threshold ([4]; changed C-term. vs wild-type): 14.4
EC50 ([4]; wild-type): 236 µM

CC(C)[C@@H]1CC[C@@H](C)CC1=O [menthone]
activation of the modified receptor variant ([4]; OR8K3, SEQ ID NO: 86): also activating the receptor, although with a lower potency
inactive up to concentration ([4]; wild-type OR8K3): > 316 µM

SEQ ID NO: 86: optimized C-terminal sequence fused after TM7 of the OR of the assay (RNKEVKDALKRLLKRKCC; source 1..18: note = C-terminal domain sequence)
EC2 (concentration for 2-fold luciferase induction) [5]: 0.007 µM
EC2 Fold-improvement vs. wild-type [5]: 249.44
luciferase induction ([6]; 1 μM of Ambermax): around 10 fold
% of the activation by the optimized sequence RNKEVKDALKRLLKRKCC ([6]; OR7C1 variant, 1 μM Ambermax): 100%
% of the activation by the optimized sequence RNKEVKDALKRLLKRKCC ([1]; 4 μM 2-methyl-3-tetrahydrofuranethiol): 100%
% of the activation by the optimized sequence RNKEVKDALKRLLKRKCC ([1]; 8 μM 2-methyl-3-tetrahydrofuranethiol): 100%
% of the activation by the optimized sequence RNKEVKDALKRLLKRKCC ([1]; 10 μM Cyclopentanethiol, 30 μM copper): 100%
% of the activation by the optimized sequence RNKEVKDALKRLLKRKCC ([1]; 31 μM Cyclopentanethiol, 30 μM copper): 100%
fold-induction of luciferase ([7]; muscone 0.01 μM): 1.07
fold-induction of luciferase ([7]; muscone 0.03 μM): 1.48
fold-induction of luciferase ([7]; muscone 0.10 μM): 3.57
fold-induction of luciferase ([7]; muscone 0.32 μM): 10.02
fold-induction of luciferase ([7]; muscone 1.00 μM): 21.98
fold-induction of luciferase ([7]; muscone 3.16 μM): 31.84
fold-induction of luciferase ([7]; muscone 10.00 μM): 33.98
fold induction of luciferase by 4-ethyloctanoic acid ([8]; 1 µM): 2.21
fold induction of luciferase by 4-ethyloctanoic acid ([8]; 10 µM): 3.53
fold induction of luciferase by 4-ethyloctanoic acid ([8]; 31 µM): 7.64
% of the activation by the optimized sequence RNKEVKDALKRLLKRKCC ([9]; 31 μM Hedione HC): 100%
% of the activation by the optimized sequence RNKEVKDALKRLLKRKCC ([9]; 62.5 μM Hedione HC): 100%
